Reference: US20110165265A1, “TRAIL VARIANTS FOR TREATING CANCER” (FUNDACIÓ GENÒMICA (CRG), priority 2007, published 2011)
Entries after “also recorded” stand apart in the source; their conditions may differ.

B1: wtTRAIL: wild-type soluble recombinant human TRAIL, amino acids 114-281 (SEQ ID NO: 3) (protein, listed as Homo sapiens)
chain: MVRRGRVAAHTGTRGRSNTSSNSKNKAGRKNSWSSRSGHSSNHRNGVHKGYYYSTYRKNTKNDKMVYYKYTSYDMKSARNSCWSKDAYGYSYGGKNDRVSVTNHDMDHASGAVG
modifications: TRAIL 114-281
B2: D269HE195R: rhTRAIL (114-281) carrying mutations D269H and E195R; DR5-selective TRAIL variant (protein)
chain: MVRERGPQRVAAHITGTRGRSNTLSSPNSKNEKALGRKINSWESSRSGHSFLSNLHLRNGELVIHEKGFYYIYSQTYFRFQERIKENTKNDKQMVQYIYKYTSYPDPILLMKSARNSCWSKDAEYGLYSIYQGGIFELKENDRIFVSVTNEHLIDMHHEASFFGAFLVG

Tests used:
[1] = test system: ML-1 cells; assay: Cytotoxicity in ML-1 cells; assay type: cell-based
Procedure: Colo205 and ML-1 cells were then treated with increasing concentrations of TRAIL or the DR5-specific variants D269H, D269HE195R, and D269H/T214R, and their cytotoxic potential was measured with a 3-(4,5-dimethylthiazol-2-yl)-2,5-diphenyl tetrazolium bromide (MTT) assay.

[2] = test system: human umbilical vein endothelial cells (HUVEC); assay: Viability of HUVEC; assay type: cell-based; settings: for cell viability: 50-500 ng/ml, 24 h, MTT
Procedure: (§1) Human dermal fibroblasts were grown in low glucose DMEM (Sigma) supplemented with 10% fetal calf serum, 50 U/ml penicillin and […] streptomycin; human umbilical vein endothelial cells (HUVEC, PromoCell) were cultured in Endothelial Cell Growth Medium with SupplementMix (PromoCell). Fibroblasts and HUVEC cells were seeded at 1.3×10^5 cells/ml 24 h before treatment with increasing concentrations of TRAIL and DR5-selective variants, D269H and D269HE195R (50-500 ng/ml) for 24 h and cell viability was measured using MTT assay, wherein 200 μg/ml MTT (3-(4,5-dimethylthiazo1-2-yl)-2,5-diphenyl-tetrazolium bromide) was added to control and treated cells and incubated for 3 h at 37° C. The reaction was stopped and the purple formazan precipitate formed was dissolved using dimethyl sulfoxide (DMSO) and the colour intensity was measured at 550 nm on a Wallac multilabel counter. The control value corresponding to untreated cells was taken as 100% and the viability of treated samples was expressed as a percentage of the control. (FIG. 15).

[3] = test system: Caski cells; assay: Cell survival / sensitivity of Caski; assay type: cell-based
[4] = test system: A2780 cells; assay: Microculture tetrazolium cytotoxicity assay in A2780; assay type: cell-based, human; settings: A2780, 96 h
Procedure: The microculture tetrazolium assay, performed as described earlier^36, was used to measure cytotoxicity. […] In cell viability assays assessing combination treatment with cisplatin, the cells were pre-incubated for 4 h (h) with 2.5 μM cisplatin (inhibitory concentration 20%-IC20), before addition of 0-25 ng/ml TRAIL or TRAIL-DR5.

[5] = test system: Colo205 cells; assay: Cell survival / sensitivity of Colo205; assay type: cell-based
Procedure: (B) Effect of increasing concentrations of Aspirin on cell viability. (C) Effect of increasing concentrations of 5-Flurouracil on cell viability. (D) Combination therapy with 5 mM Aspirin pre-incubated for 24 h lead to further decreases in cell viability in cells treated with both TRAIL and two of the DR5 mutants. (E) 30 minute incubation of DR5 mutants, were sufficient decrease cell viability which was further augmented when cells were pre-incubated for 24 h with Aspirin. The shorter incubation period lead to a decrease potency of TRAIL alone or in combination with Aspirin. […] (G) 30 min incubation of the DR5 mutant was sufficient to decrease cell viability which was not enhanced by 5-Flurouracil, and once again the decease potency of TRAIL is seen. Proteins are indicated as follows: TRAIL stands for rhTRAIL WT; D269H stands for rhTRAIL carrying mutation D269H; E195R stands for rhTRAIL carrying mutations D269H and E195R; and M1 stands for rhTRAIL carrying mutations D269H, E194I and I196S.
TRAIL-induced cell death as a function of concentration was measured with the MTS assay.

[6] = test system: A2780 cells; assay: Caspase-3 activity and acridine orange apoptosis assays in A2780; assay type: cell-based, human; settings: for effect of DcR2 blocking antibody on apoptosis induction: A2780; for effect of DR5 siRNA on induced apoptosis: A2780, also with cisplatin
[7] = test system: Colo205 cells; assay: Annexin V apoptosis in Colo205 after PI3K inhibition; assay type: cell-based, human; settings: 20 μM LY294002 15-18 hours, ligand 0.1 μg/ml 3 h
Procedure: Modulation of TRAIL and D269H/E195R induced apoptosis by PI3K inhibition in Colo205, as assessed by Annexin V assay. Cells were pre-incubated for 15-18 hours with 20 μM LY294002, then either left untreated or exposed to rhTRAIL (0.1 μg/ml) or D269H/E195R (0.1 μg/ml) for 3 additional hours before harvest.

[8] = test system: HeLa xenografts; assay: HeLa xenografts in athymic nude mice; assay type: in vivo; settings: start at +/−150 mm3
Description: Xenografts of the HeLa cervical cancer cell line were established with matrigel in athymic nude mice. Treatment was started when tumor volume was +/−150 mm3.

[9] = test system: A2780 cells; assay: Annexin V apoptosis assay in A2780; assay type: cell-based, human
[10] = test system: HeLa cells; assay: Cell survival / sensitivity of HeLa; assay type: cell-based
Procedure: (B) Effect of increasing of Bortezomib on cell viability. Hela cells appear to tolerate higher concentration of Bortezomib compared to Caski and SIHA cells (C) Combination therapy with 10 nM Bortezomib incubated for 24 h lead to further decreases in cell viability in cells treated with both TRAIL and two of the DR5 mutants (D) Radiation therapy in combination with TRAIL or the DR5 mutants further decrease cell viability in HELA cells. The DR5 mutant show decrease cell viability at lower concentration of ligand compared to TRAIL.

[11] = test system: Human dermal fibroblasts; assay: MTT viability of human dermal fibroblasts; assay type: cell-based; settings: 50-500 ng/ml, 24 h
Procedure: as §1

[12] = test system: Colo205 tumors; assay: Colo205 tumors in athymic nude mice; assay type: in vivo; settings: for anti-tumor effect, single therapy: 1 and 5 mg/kg IP
Procedure: The anti-tumor effect of rhTRAIL WT and D269HE195R was tested in a small number of athymic nude mice carrying a tumor of Colo205 cells (n=3 to 5 per group). The rhTRAIL proteins were tested in doses of 1 and 5 mg/kg, given by intraperitoneal injections for 2×5 days (day 1-5 and 8-12) with a daily doses of aspirin (in the same syringe as protein).
In a third study the combination between TRAIL and aspirin was tested. […] Both were tested in doses of 1 and 5 mg/kg, given by intraperitoneal injections for 2×5 days (day 1-5 and 8-12) with daily doses of aspirin (in the same syringe as protein). Data is only presented until day 13, because of too many fluctuations and mice dying after this day.

[13] = lowest dose 1 mg/kg + 200 mg/kg aspirin

Molecule	cell death induction [1]	cell viability [2]	cell viability, single agent [3]	effect of combination with bortezomib [3]	cell survival / viability [4]	effect of 5-FU and Aspirin on induced apoptosis ([5]; Colo205)	effect of DcR2 blocking antibody on apoptosis induction [6]	effect of DR5 siRNA on induced apoptosis [6]	change of sensitivity after PI3K inhibition [7]	effect on xenografts [8]	cell viability, single agent [10]	effect of radiotherapy and Bortezomib on induced apoptosis [10]	cell viability [11]	effect of combination with aspirin ([12]; 5 mg/kg + 200 mg/kg aspirin)	effect of combination with aspirin [12, 13]	also measured
B1	able to induce cell death	Neither wtTRAIL nor the DR5-selective variants had any effect; also recorded: did not result in a decrease in cell viability	comparable	increased tumor cell death	dose dependent loss of viability	enhanced apoptosis	did not enhance apoptosis induction	completely protected	slightly decreased	No effect was observed	comparable	enhanced apoptosis	Neither wtTRAIL nor the DR5-selective variants had any effect; also recorded: did not result in a decrease in cell viability	additive effect	additive effect	cytotoxic effects on noncancerous cells ([2]; 100 ng/ml): no cytotoxic effects were observed; cell death ([9]; A2780, highest concentration tested 250 ng/ml): ≤ 24.3±4.5%
B2	only TRAIL was able to induce cell death; also recorded: hardly any apoptosis	did not result in a decrease in cell viability	comparable	increased tumor cell death	decreased cell survival more effectively than TRAIL	enhanced apoptosis	did not enhance apoptosis induction	completely protected	enhanced	No effect was observed	comparable	enhanced apoptosis	did not result in a decrease in cell viability	not visible	additive effect	cell viability, single agent ([5]; Colo205): significantly less cell viability than TRAIL; sensitivity, single agent comparison ([5]; Colo205): higher sensitivity; efficient concentration compared to wtTRAIL ([5]; Colo205, MTS dose-response): efficient at a several fold lower concentration than needed for wtTRAIL; apoptosis ([9]; A2780, 10 ng/ml, Annexin V): 30.6±2.5%; anti-tumor effect, single therapy ([12]; listed as TRAIL-DR5): nice response; anti-tumor effect, single therapy ([12]; listed as mutant TRAIL): reduces the tumor growth; also recorded: some positive effect on the tumor growth
